Assay results as given in the supplement of paper PMC9876800.

Test system: peptide library, one residue held at a place counted from the S/T acceptor
Assay: relative phosphorylation of the sub-library (ratio to the mean residue at this position); higher = residue favoured
Conditions: human
Summary of the method: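 In 384-well plates, purified recombinant kinases (human or orthologue constructs) were incubated for 90 min under kinase-specific conditions with 50 μM biotinylated degenerate peptide sub-libraries and 50 μM ATP spiked with γ-32P-ATP. Each sub-library fixed a single residue at one position around a central Ser/Thr. Relative sub-library phosphorylation, measured by phosphorimaging and densitometry of streptavidin membrane spots, is given as a ratio to the mean residue at that position.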

BUB1, construct: Full length, sequence (O43683 whole entry, looked up): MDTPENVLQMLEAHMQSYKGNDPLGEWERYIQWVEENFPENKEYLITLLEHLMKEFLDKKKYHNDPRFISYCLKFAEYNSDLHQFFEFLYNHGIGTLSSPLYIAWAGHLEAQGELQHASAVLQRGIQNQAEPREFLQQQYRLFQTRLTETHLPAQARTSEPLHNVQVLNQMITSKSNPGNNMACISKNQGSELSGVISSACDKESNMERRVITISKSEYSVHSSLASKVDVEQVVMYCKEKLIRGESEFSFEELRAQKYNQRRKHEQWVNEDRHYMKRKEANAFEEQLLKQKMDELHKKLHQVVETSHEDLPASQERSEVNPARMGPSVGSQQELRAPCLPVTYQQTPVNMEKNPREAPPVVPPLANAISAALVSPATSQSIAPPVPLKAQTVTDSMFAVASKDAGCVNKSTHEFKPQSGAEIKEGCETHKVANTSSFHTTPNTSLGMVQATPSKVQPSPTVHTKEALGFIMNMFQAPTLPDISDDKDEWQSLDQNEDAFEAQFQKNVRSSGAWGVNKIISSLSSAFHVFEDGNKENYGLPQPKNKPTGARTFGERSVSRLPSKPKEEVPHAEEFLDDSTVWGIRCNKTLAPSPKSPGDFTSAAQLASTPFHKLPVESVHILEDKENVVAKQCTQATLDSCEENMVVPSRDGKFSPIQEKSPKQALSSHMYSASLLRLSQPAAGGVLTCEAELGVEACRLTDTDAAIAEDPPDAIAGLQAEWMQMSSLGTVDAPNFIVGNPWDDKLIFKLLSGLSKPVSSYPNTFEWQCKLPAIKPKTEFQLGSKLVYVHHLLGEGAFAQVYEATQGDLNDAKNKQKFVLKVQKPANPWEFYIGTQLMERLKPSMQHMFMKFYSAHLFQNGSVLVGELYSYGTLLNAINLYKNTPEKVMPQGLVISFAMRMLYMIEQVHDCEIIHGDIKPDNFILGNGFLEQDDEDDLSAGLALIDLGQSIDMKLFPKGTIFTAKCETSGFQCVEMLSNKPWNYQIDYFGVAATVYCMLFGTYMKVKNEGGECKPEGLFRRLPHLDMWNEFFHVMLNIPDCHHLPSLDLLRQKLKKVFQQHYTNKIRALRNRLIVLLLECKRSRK

BUB1, construct: Full length (from UniProt O43683)
relative phosphorylation (A fixed, at +1): 0.963
relative phosphorylation (A fixed, at +2): 0.738
relative phosphorylation (A fixed, at +3): 0.95
relative phosphorylation (A fixed, at +4): 0.855
relative phosphorylation (A fixed, at -1): 0.796
relative phosphorylation (A fixed, at -2): 0.718
relative phosphorylation (A fixed, at -3): 1.66
relative phosphorylation (A fixed, at -4): 1.24
relative phosphorylation (A fixed, at -5): 0.423
relative phosphorylation (D fixed, at +1): 0.375
relative phosphorylation (D fixed, at +2): 0.267
relative phosphorylation (D fixed, at +3): 0.416
relative phosphorylation (D fixed, at +4): 0.455
relative phosphorylation (D fixed, at -1): 0.321
relative phosphorylation (D fixed, at -2): 0.411
relative phosphorylation (D fixed, at -3): 0.232
relative phosphorylation (D fixed, at -4): 0.61
relative phosphorylation (D fixed, at -5): 0.245
relative phosphorylation (E fixed, at +1): 0.325
relative phosphorylation (E fixed, at +2): 0.331
relative phosphorylation (E fixed, at +3): 0.379
relative phosphorylation (E fixed, at +4): 0.424
relative phosphorylation (E fixed, at -1): 0.289
relative phosphorylation (E fixed, at -2): 0.284
relative phosphorylation (E fixed, at -3): 0.347
relative phosphorylation (E fixed, at -4): 0.865
relative phosphorylation (E fixed, at -5): 0.246
relative phosphorylation (F fixed, at +1): 0.541
relative phosphorylation (F fixed, at +2): 1.13
relative phosphorylation (F fixed, at +3): 0.784
relative phosphorylation (F fixed, at +4): 0.78
relative phosphorylation (F fixed, at -1): 0.855
relative phosphorylation (F fixed, at -2): 0.411
relative phosphorylation (F fixed, at -3): 0.389
relative phosphorylation (F fixed, at -4): 0.739
relative phosphorylation (F fixed, at -5): 0.486
relative phosphorylation (G fixed, at +1): 1.34
relative phosphorylation (G fixed, at +2): 1.09
relative phosphorylation (G fixed, at +3): 1.09
relative phosphorylation (G fixed, at +4): 1.31
relative phosphorylation (G fixed, at -1): 0.502
relative phosphorylation (G fixed, at -2): 0.418
relative phosphorylation (G fixed, at -3): 0.918
relative phosphorylation (G fixed, at -4): 1.06
relative phosphorylation (G fixed, at -5): 0.377
relative phosphorylation (H fixed, at +1): 0.807
relative phosphorylation (H fixed, at +2): 1.22
relative phosphorylation (H fixed, at +3): 0.969
relative phosphorylation (H fixed, at +4): 1.04
relative phosphorylation (H fixed, at -1): 0.902
relative phosphorylation (H fixed, at -2): 0.597
relative phosphorylation (H fixed, at -3): 0.591
relative phosphorylation (H fixed, at -4): 0.882
relative phosphorylation (H fixed, at -5): 0.393
relative phosphorylation (I fixed, at +1): 0.594
relative phosphorylation (I fixed, at +2): 0.761
relative phosphorylation (I fixed, at +3): 0.565
relative phosphorylation (I fixed, at +4): 1
relative phosphorylation (I fixed, at -1): 0.551
relative phosphorylation (I fixed, at -2): 1.8
relative phosphorylation (I fixed, at -3): 0.839
relative phosphorylation (I fixed, at -4): 0.556
relative phosphorylation (I fixed, at -5): 1.12
relative phosphorylation (K fixed, at +1): 3.21
relative phosphorylation (K fixed, at +2): 2.02
relative phosphorylation (K fixed, at +3): 1.22
relative phosphorylation (K fixed, at +4): 1.93
relative phosphorylation (K fixed, at -1): 2.21
relative phosphorylation (K fixed, at -2): 3.31
relative phosphorylation (K fixed, at -3): 1.2
relative phosphorylation (K fixed, at -4): 1.66
relative phosphorylation (K fixed, at -5): 0.472
relative phosphorylation (L fixed, at +1): 0.552
relative phosphorylation (L fixed, at +2): 0.851
relative phosphorylation (L fixed, at +3): 0.543
relative phosphorylation (L fixed, at +4): 0.849
relative phosphorylation (L fixed, at -1): 1.43
relative phosphorylation (L fixed, at -2): 1.13
relative phosphorylation (L fixed, at -3): 0.526
relative phosphorylation (L fixed, at -4): 1.16
relative phosphorylation (L fixed, at -5): 4.97
relative phosphorylation (M fixed, at +1): 0.759
relative phosphorylation (M fixed, at +2): 0.986
relative phosphorylation (M fixed, at +3): 0.777
relative phosphorylation (M fixed, at +4): 0.96
relative phosphorylation (M fixed, at -1): 1.32
relative phosphorylation (M fixed, at -2): 0.851
relative phosphorylation (M fixed, at -3): 0.656
relative phosphorylation (M fixed, at -4): 1.13
relative phosphorylation (M fixed, at -5): 1.3
relative phosphorylation (N fixed, at +1): 0.662
relative phosphorylation (N fixed, at +2): 0.583
relative phosphorylation (N fixed, at +3): 0.711
relative phosphorylation (N fixed, at +4): 1.07
relative phosphorylation (N fixed, at -1): 0.566
relative phosphorylation (N fixed, at -2): 0.584
relative phosphorylation (N fixed, at -3): 0.616
relative phosphorylation (N fixed, at -4): 0.558
relative phosphorylation (N fixed, at -5): 0.388
relative phosphorylation (P fixed, at +1): 0.367
relative phosphorylation (P fixed, at +2): 2.16
relative phosphorylation (P fixed, at +3): 4.04
relative phosphorylation (P fixed, at +4): 0.962
relative phosphorylation (P fixed, at -1): 1.33
relative phosphorylation (P fixed, at -2): 0.721
relative phosphorylation (P fixed, at -3): 3.77
relative phosphorylation (P fixed, at -4): 1.5
relative phosphorylation (P fixed, at -5): 1.53
relative phosphorylation (Q fixed, at +1): 0.972
relative phosphorylation (Q fixed, at +2): 0.747
relative phosphorylation (Q fixed, at +3): 0.767
relative phosphorylation (Q fixed, at +4): 1.01
relative phosphorylation (Q fixed, at -1): 0.77
relative phosphorylation (Q fixed, at -2): 0.868
relative phosphorylation (Q fixed, at -3): 1.24
relative phosphorylation (Q fixed, at -4): 1.07
relative phosphorylation (Q fixed, at -5): 0.905
relative phosphorylation (R fixed, at +1): 3.99
relative phosphorylation (R fixed, at +2): 2.14
relative phosphorylation (R fixed, at +3): 1.41
relative phosphorylation (R fixed, at +4): 1.8
relative phosphorylation (R fixed, at -1): 2.76
relative phosphorylation (R fixed, at -2): 2.32
relative phosphorylation (R fixed, at -3): 2.38
relative phosphorylation (R fixed, at -4): 1.64
relative phosphorylation (R fixed, at -5): 1.31
relative phosphorylation (V fixed, at +1): 0.611
relative phosphorylation (V fixed, at +2): 0.777
relative phosphorylation (V fixed, at +3): 0.631
relative phosphorylation (V fixed, at +4): 0.78
relative phosphorylation (V fixed, at -1): 0.435
relative phosphorylation (V fixed, at -2): 1.65
relative phosphorylation (V fixed, at -3): 0.791
relative phosphorylation (V fixed, at -4): 0.676
relative phosphorylation (V fixed, at -5): 0.543
relative phosphorylation (W fixed, at +1): 0.497
relative phosphorylation (W fixed, at +2): 0.491
relative phosphorylation (W fixed, at +3): 0.936
relative phosphorylation (W fixed, at +4): 0.949
relative phosphorylation (W fixed, at -1): 0.705
relative phosphorylation (W fixed, at -2): 0.485
relative phosphorylation (W fixed, at -3): 0.442
relative phosphorylation (W fixed, at -4): 0.829
relative phosphorylation (W fixed, at -5): 0.412
relative phosphorylation (Y fixed, at +1): 0.442
relative phosphorylation (Y fixed, at +2): 0.713
relative phosphorylation (Y fixed, at +3): 0.813
relative phosphorylation (Y fixed, at +4): 0.824
relative phosphorylation (Y fixed, at -1): 1.26
relative phosphorylation (Y fixed, at -2): 0.452
relative phosphorylation (Y fixed, at -3): 0.405
relative phosphorylation (Y fixed, at -4): 0.827
relative phosphorylation (Y fixed, at -5): 1.87
relative phosphorylation (pThr fixed, at +1): 0.373
relative phosphorylation (pThr fixed, at +2): 0.328
relative phosphorylation (pThr fixed, at +3): 0.586
relative phosphorylation (pThr fixed, at +4): 0.443
relative phosphorylation (pThr fixed, at -1): 0.199
relative phosphorylation (pThr fixed, at -2): 0.249
relative phosphorylation (pThr fixed, at -3): 0.375
relative phosphorylation (pThr fixed, at -4): 0.475
relative phosphorylation (pThr fixed, at -5): 0.408
relative phosphorylation (pTyr fixed, at +1): 0.252
relative phosphorylation (pTyr fixed, at +2): 0.29
relative phosphorylation (pTyr fixed, at +3): 0.697
relative phosphorylation (pTyr fixed, at +4): 0.463
relative phosphorylation (pTyr fixed, at -1): 0.315
relative phosphorylation (pTyr fixed, at -2): 0.281
relative phosphorylation (pTyr fixed, at -3): 0.256
relative phosphorylation (pTyr fixed, at -4): 0.414
relative phosphorylation (pTyr fixed, at -5): 0.993
